The target in this assay is recombinant murine CD40 protein (murine) (UniProt P27512). Kind of assay: SPR, binding to mCD40.
recombinant murine CD40 protein (murine), sequence (P27512 24-193 limits assumed): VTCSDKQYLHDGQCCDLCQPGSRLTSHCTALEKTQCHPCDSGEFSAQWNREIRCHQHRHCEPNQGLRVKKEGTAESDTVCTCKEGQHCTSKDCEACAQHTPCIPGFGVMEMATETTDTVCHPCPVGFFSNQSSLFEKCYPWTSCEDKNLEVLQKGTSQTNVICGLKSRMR

B1: mCD40L-Fc (Fc fusion, from a related filing)
chain: MQRGDEDPQIAAHVVSEANSNAASVLQWAKKGYYTMKSNLVMLENGKQLTVKREGLYYVYTQVTFCSNREPSSQRPFIVGLWLKPSSGSERILLKAANTHSSSQLCEQQSVHLGGVFELQAGASVFVNVTEASQVIHRVGFSSFGLLKL
modifications: left off: a dimerising Fc or GST
Consider B1, for which the Kd came out at 3.23 nM, the koff worked out at 9.81e-05 s⁻¹ and the kon turned out to be 30400 M⁻¹ s⁻¹.

These data come from patent US20240368242A1.
